T1: GST-Esc2 (Saccharomyces cerevisiae, UniProt Q06340 1-456)
T1 construct: Esc2, Saccharomyces cerevisiae, full-length gene cloned into BamHI/SalI of pGEX-6P-2; pGEX-6P-2 should place GST at the N-terminus (surmised from the vector); also called recombinant glutathione S-transferase (GST)-Esc2; GST-tagged Esc2; source: E. coli BL21 (DE3), purified (glutathione-Sepharose 4B, eluted with reduced glutathione, dialysed)
T1 sequence (looked up): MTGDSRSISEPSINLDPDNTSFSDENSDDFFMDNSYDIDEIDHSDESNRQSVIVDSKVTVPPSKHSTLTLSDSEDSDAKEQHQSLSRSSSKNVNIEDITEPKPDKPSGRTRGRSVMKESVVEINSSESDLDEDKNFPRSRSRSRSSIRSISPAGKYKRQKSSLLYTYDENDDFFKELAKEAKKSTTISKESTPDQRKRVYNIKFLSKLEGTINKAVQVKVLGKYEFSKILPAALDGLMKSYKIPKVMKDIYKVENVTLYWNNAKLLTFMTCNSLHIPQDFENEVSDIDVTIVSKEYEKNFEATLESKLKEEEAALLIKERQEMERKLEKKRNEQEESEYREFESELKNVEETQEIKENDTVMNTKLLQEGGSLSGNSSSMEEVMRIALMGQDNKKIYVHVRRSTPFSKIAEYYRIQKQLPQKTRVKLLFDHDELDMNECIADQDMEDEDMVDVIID


Target: T1, GST-Esc2
Assay: peptide or protein array; PEPperPRINT microarray of 15-aa peptides covering the entire Mms4 and Mus81 with 14-aa overlaps, printed in duplicate; purified GST-Esc2 in solution, detected with anti-GST DyLight680
Conditions: both partners purified

Row | Binder | binding result
1 | RSKKSSQVGKLGIKK (15-aa stretch of Mms4, S. cerevisiae; Immobilised on the array; It is printed as the 'consensus motif' of a response peak of overlapping 15-mers; source: synthetic peptide, printed on a peptide microarray (PEPperPRINT GmbH)) [Mms4 peptide RSKKSSQVGKLGIKK] | binds
2 | EKGTKKRKTRKYIPK (15-aa stretch of Mus81, S. cerevisiae; Immobilised on the array; It is printed as the 'consensus motif' of a response peak of overlapping 15-mers; source: synthetic peptide, printed on a peptide microarray (PEPperPRINT GmbH)) [Mus81 peptide EKGTKKRKTRKYIPK] | binds
